Results taken from PMC6032241, “UDP-Glucose 4-Epimerase and β-1,4-Galactosyltransferase from the Oyster Magallana gigas as Valuable Biocatalysts for the Production of Galactosylated Products” (International Journal of Molecular Sciences, 2018).

Experiments:
MgGalT7 = target: T1, MgGalT7 (Magallana gigas, UniProt Z9LX56G651); assay: coupled galactosylation with MgUGE, HPLC-ESI-MS; assay type: biochemical; conditions: acceptor 10 mM; 15 mM UDP-glucose converted to UDP-galactose by MgUGE, 1 mM MnCl2, 50 mM Tris-HCl pH 8.0, 37 °C, 24 h
T1 sequence (Z9LX56G651 34-312): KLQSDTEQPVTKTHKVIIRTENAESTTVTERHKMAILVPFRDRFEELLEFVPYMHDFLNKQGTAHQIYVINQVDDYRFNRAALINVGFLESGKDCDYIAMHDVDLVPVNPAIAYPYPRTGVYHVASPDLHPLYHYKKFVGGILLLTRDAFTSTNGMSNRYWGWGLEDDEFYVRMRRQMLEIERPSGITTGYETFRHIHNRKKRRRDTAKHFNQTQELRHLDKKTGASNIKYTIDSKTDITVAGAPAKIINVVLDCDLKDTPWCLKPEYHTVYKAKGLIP

purified protein = substrate: O=c1ccn([C@@H]2O[C@H](COP(=O)(O)OP(=O)(O)O[C@H]3O[C@H](CO)[C@H](O)[C@H](O)[C@H]3O)[C@@H](O)[C@H]2O)c(=O)[nH]1; assay: purified protein; assay type: biochemical, Magallana gigas; conditions: 50 mM Tris-HCl pH 8.0, 22 °C, UDP-galactose 10 µM to 2 mM

Molecule: O=[N+]([O-])c1ccc(O[C@H]2OC[C@@H](O)[C@H](O)[C@H]2O)cc1 [pNP-xylose]
- coupled galactosylation with MgUGE, HPLC-ESI-MS (MgGalT7): (MgGalT7), allowing the galactosylation of the model substrate para-nitrophenol xylose (pNP-xylose)

B1: MgUGE (Magallana gigas) (protein)
chain: MGDSCILVTGGAGFVGSHSVIELIEAGYSVVVMDNLANASMESIKRVEEITGKSIPSYSVDLLDKPALSDLFNKHKFTSVIHFAGLKAVGESCQLPLLYYKNNVGGTVNLLEVMKEKGVKNLIFSSSATVYGSPQYLPIDEKHPVGGCTNPYGKTKYFIEEILRDLHKAEPDWNIIMLRYFNPVGAHKSGKIGEDPQGIPNNLMPFIAQVAVGKRAELSVYGSDYDTPDGTGVRDYIHVVDLAQGHVAAQKKIEKKCGCKVYNLGTGKGYSVIEMAKAFEEASGKPIPFKKVDRRAGDVASVYGNADLAKEELGWSASRDLKQMCEDTWRWQSSNPNGFRK
notes: forward primer encodes N-terminus MGDSCIL
- Km (purified protein): 1.6 ± 0.1 mM
- kcat (purified protein): 134 ± 12 min⁻¹
